Assay results published in PMC10410066.

Key:
[1] = target: inhibitor of nuclear factor kappa B kinase subunit beta (IKBKB), FLAG-tagged (UniProt O14920); experiment: ELISA protein-protein interaction assay (2B7 capture, anti-FLAG detection); settings: lysates of HEK293T cells co-overexpressing N571 Q55 HTT WT or S13A/S16A and FLAG-tagged IKBKB; parent: est. 100; read off a plot
[2] = target: N571 Q55 HTT (N-terminal huntingtin fragment 1-571 with 55 glutamines); experiment: as above; settings: lysates of HEK293T cells co-overexpressing N571 Q55 HTT and FLAG-tagged IKBKB construct; parent: est. 100; read off a plot

percent of parent [2] [%] | Substance | percent of parent [1] [%]
– | N571 Q55 HTT (N-terminal huntingtin fragment 1-571 with 55 glutamines) S13A; S16A | 100
17 | inhibitor of nuclear factor kappa B kinase subunit beta (IKBKB), FLAG-tagged (from UniProt O14920) K44A | –
190 | inhibitor of nuclear factor kappa B kinase subunit beta (IKBKB), FLAG-tagged (from UniProt O14920) S177E; S181E | –
190 | inhibitor of nuclear factor kappa B kinase subunit beta (IKBKB), FLAG-tagged (from UniProt O14920) W739A; W741A | –
